Molecular target: T1, Apo-2 ligand (soluble Apo-2L, Pitti et al.) (UniProt P50591 114-281)
T1 construct: also called TRAIL; 125I-Apo-2L
Experiment: 125I-Apo-2L binding to Apo-2DcR-transfected 293 cells; nonspecific binding with 0.5 ug/ml unlabeled Apo-2L

T1 sequence (P50591 114-281 limits assumed): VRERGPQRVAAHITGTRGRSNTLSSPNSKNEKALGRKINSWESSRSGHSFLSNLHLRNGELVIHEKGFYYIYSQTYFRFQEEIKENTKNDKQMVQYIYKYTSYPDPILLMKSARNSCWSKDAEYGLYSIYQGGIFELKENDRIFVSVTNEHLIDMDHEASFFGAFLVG

binding result: binds
B1: full-length native sequence human Apo-2DcR (receptor)
chain: ATTARQEEVPQQTVAPQQQRHSFKGEECPAGSHRSEHTGACNPCTEGVDYTNASNNEPSCFPCTVCKSDQKHKSSCTMTRDTVCQCKEGTFRNENSPEMCRKCSRCPSGEVQVSNCTSWDDIQCVEEFGANATVETPAAEETMNTSPGTPAPAAEETMNTSPGTPAPAAEETMTTSPGTPAPAAEETMTTSPGTPAPAAEETMTTSPGTPA
notes: also called Apo-2DcR receptor; pRK5-hApo-2DcR product

Source: US20020102706A1 (published 2002)
